In paper PMC7065271 (Chemico-biological interactions, 2020):

Target: the molecule itself
Experiment: SEC

B1: Torpedo californica acetylcholinesterase tetramer (enzyme, UniProt P04058-2 22-596, looked up)
chain: DDHSELLVNTKSGKVMGTRVPVLSSHISAFLGIPFAEPPVGNMRFRRPEPKKPWSGVWNASTYPNNCQQYVDEQFPGFSGSEMWNPNREMSEDCLYLNIWVPSPRPKSTTVMVWIYGGGFYSGSSTLDVYNGKYLAYTEEVVLVSLSYRVGAFGFLALHGSQEAPGNVGLLDQRMALQWVHDNIQFFGGDPKTVTIFGESAGGASVGMHILSPGSRDLFRRAILQSGSPNCPWASVSVAEGRRRAVELGRNLNCNLNSDEELIHCLREKKPQELIDVEWNVLPFDSIFRFSFVPVIDGEFFPTSLESMLNSGNFKKTQILLGVNKDEGSFFLLYGAPGFSKDSESKISREDFMSGVKLSVPHANDLGLDAVTLQYTDWMDDNNGIKNRDGLDDIVGDHNVICPLMHFVNKYTKFGNGTYLYFFNHRASNLVWPEWMGVIHGYEIEFVFGLPLVKELNYTAEEEALSRRIMHYWATFAKTGNPNEPHSQESKWPLFTTKEQKFIDLNTEPMKVHQRLRVQMCVFWNQFLPKLLNATETIDEAERQWKTEFHRWSSYMMHWKNQFDHYSRHESCAEL
In the case of B1, the “stoichiometry N” value is reported as 4.
